Measurements published in patent publication EP2351583A1.

Target: AAB1/B2Fc
Assay: SPR (BIAcore), Fab immobilized on Pioneer F1 chip, AAB1/B2Fc as analyte

B1: Fab fragment F200 (Fab, V domains shown)
VH: QVQLKESGPGLVAPSQSLSITCTISGFSLTDYGVHWVRQPPGKGLEWLVVIWSDGSSTYNSALKSRMTIRKDNSKSQVFLIMNSLQTDDSAMYYCARHGTYYGMTTTGDALDYWGQGTSVTVSS
VL: QIVLTQSPAIMSASLGERVTMTCTASSSVSSNYLHWYQQKPGSAPNLWIYSTSNLASGVPARFSGSGSGTSYSLTISSMEAEDAATYYCHQYLRSPPTFGGGTKLEIKR
  Kd: 0.332 nM
